Results: the nanobody polyreactivity screen of Harvey et al. (2022)

experiment: yeast display, Sf9 membrane polyspecificity reagent, FACS + sequencing; frameworks hold sequencing errors
Procedure, shortened: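 Nanobodies came from a synthetic yeast display library in Saccharomyces cerevisiae BJ5465, induced with galactose for 36–48 hours and stained for 1 hour at 4 °C with 10% biotinylated, detergent-solubilized Sf9 membrane reagent. Cells were enriched on streptavidin microbeads and then FACS-sorted, with low and high (top ~1%) gates set on anti-HA fluorescence for expression and streptavidin fluorescence for reagent binding. Each polyreactivity label reflects the gate a clone came from. Genes were amplified by colony PCR, sequenced by MiSeq 2 × 250 and filtered by CDR length.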

Sequence	polyreactivity (PSR sort gate)
QVQLVESGGGLVQAGGSLRLSCAASGSARYAMGWYRQAPGKERELVAAISRRGGSTFYADSVKGRFTISRDNAKNTVYLQMNSLKPEDTAVYYCAADGRISYDYWGQGTQVTVSS	low polyreactivity
QVQLVESGGGLVQAGGSLRLSCAASGSFFRNYAMGWYRQAPGKERELVAAISRRGTSTFYADSVKGRFTISRDNAMNTVYLQMNSLKPEDTAVYYCAARGSAGGDYGYWGQGTQVTVSS	high polyreactivity
QVQLVESGGGLVQAGGSLRLSCAASGSIAGNAMGWYRQAPGKERELVATITRRGGRTYYADSVKGRFTISRDNAKNTVYLQMNSLKPEDTAVYYCNKVSYARGYDYWGQGTQVTVSS	high polyreactivity
QVQLVESGGGLVQAGGSLRLSCAASGSICGKNGMGWYRQAPGKERELVAAITSGGGNTYYADSVKGRFTISRDNAKNTVYLQMNSLKPEDTAVDYCAKGYRAYYWGFNYWGQGTQVTVSS	high polyreactivity
QVQLVESGGGLVQAGGSLRLSCAASGSICRQYTMGWYRQAPGKERELVAGINQSGDSTSADSVKGRFTISRDNAKNTVYLQMNSLKPEDTAVYYCNADPRVWYRNIYPGRNYDYWGQGTQVTVSS	low polyreactivity
QVQLVESGGGLVQAGGSLRLSCAASGSICRYYDMGWYRQAPGKERELVAAISRSGGSTYYADSVKGRFTISRDNAKNTVYLQMNSLKPEDTAVYYCNVDQFRYREDDYWGQGTQVNVSS	high polyreactivity
QVQLVESGGGLVQAGGSLRLSCAASGSIFAAYTMGWYRQAPGKERVFVAAITYTGGSTYYADSVKGRFTISRDNAKNTVYLQMNSLKPEDTAVYYCAARGRLCQGYYYWGQGTQVTVSS	low polyreactivity
QVQLVESGGGLVQAGGSLRLSCAASGSIFAAYTMGWYRQAPGNERELVAAISVSTVSTYYADSVKGRFTISRDNAKNTVYLQMNSLKPEDTAVYYCNADATDSYPEKDEHESWGQGTQVTVSS	low polyreactivity
QVQLVESGGGLVQAGGSLRLSCAASGSIFADNTMGWSRQAPGKERELVAAITSSGRTYYADSVTGRFTISRDNAKNTVYLQMKSLKPEDTAVYYCAAVIYFHDYSPYYYWGQGTQVTVSS	high polyreactivity
QVQLVESGGGLVQAGGSLRLSCAASGSIFADYAMGWYRQAPGKERELVAAISYNGDSTYYADSVKGRFTISRDNAKTTVYLQMNSLKPEDTAVYNCAADGAYGGYDYWGQGTQVTVSS	low polyreactivity
QVQLVESGGGLVQAGGSLRLSCAASGSIFADYTMGWYRQAPGKEREVVAAITSGGSTYYADSVKGRFTISRDNAKNTVYLQMNSLKPEDTAVYYCAAYYGGRGYWGQGTQVTVSS	low polyreactivity
QVQLVESGGGLVQAGGSLRLSCAASGSIFAGNAMGWYRQAPGKERELVAAISWRGGSTYYADSVKGRFTISRDNAKNTVYLQMNSLKPEDTAVYYCAATWYDRRTFFYKYDYWGQGTQVTVSS	low polyreactivity
QVQLVESGGGLVQAGGSLRLSCAASGSIFAGYAMGWYRQAPGKERELVAAISKSAGSTYYADSVKGRFTISRDNAKNTVYLQMNSLKPEDTAVYYCAARTFNTYPRYYYWGQGTQVTVSS	high polyreactivity
QVQLVESGGGLVQAGGSLRLSCAASGSIFAGYAMGWYRQAPGKERELVAVISSTGSTYYADSVKGRFTISRDNAKNTVYLQMNSLKPEDTAVYYCAAGDVGYSYYRIYSRMDYWGQGTQVTVSS	low polyreactivity
QVQLVESGGGLVQAGGSLRLSCAASGSIFAGYTMGWSRQAPGKERELVAVISTGGRTKYADSVKGRFTISRDNAKNTVYLQMNSLKPEDTAVYYCAADSRGWSLDGDYWGQGTQVTVSS	low polyreactivity
QVQLVESGGGLVQAGGSLRLSCAASGSIFAGYTMGWYRQAPGKERELVATITRSGTSTFYADSVKGRFTISRDNAKNTVYLQMNSLKPEDTAVYYCAADVTARYDYWGQGTQVTVSS	high polyreactivity
QVQLVESGGGLVQAGGSLRLSCAASGSIFAIYVMGWYRQAPGKERELVAAISYRSGSTYYADSVKGRFTISRDNAKNTVYLQMNSLKPEDTAVYYCAATSRYYTFGYWGQGTQVTVSS	low polyreactivity
